The record followed here is patent US11241387B2, “Carrier-binding agent compositions and methods of making and using the same” (Mayo Foundation for Medical Education and Research, priority 2015, dated 2022).

Experiment [1] concerns the target T1, ABX (Homo sapiens, UniProt P02768).
T1 construct: purchased Celgene Corporation, Summit, N.J
The experiment in a line: Bio-Layer Interferometry (BLItz) binding of antibody to ABX. The following applies: pH 3, 5, 7, 9; BEV also RT, 37° C. and 58° C. (BLI is a label-free optical method that tracks binding on a fibre tip over time.)
Protocol: The association and dissociation constants were calculated using the BLItz software.

Experiment [2] concerns Daudi human lymphoma cells. Nature of the experiment: Daudi xenotransplant model in athymic nude mice. Conditions: ABX 30 mg/kg, rituximab 12 mg/kg, or AR160. The format is in vivo.
Protocol: (§1) To test tumor efficacy, 1×10^6 A375 human melanoma cells were implanted into the right flank of athymic nude mice (Harlan Sprague Dawley, Indianapolis, Ind.). […] Tumor size was monitored 3 times/week and tumor volume was calculated with the following equation: (length×width)/2. Mice were sacrificed when the tumor size equaled 10% of the mouse body weight or about 2500 mm^3. The day 7 percent change from baseline was calculated as follows: [(tumor size on treatment day-tumor size on day 7)/tumor size on treatment day]×100.
Experiment [3] concerns the target T2, CD20 (Homo sapiens, UniProt P11836).
T2 construct: host or cells: Daudi B-cell lymphoma cells
T2 sequence (P11836 1-297): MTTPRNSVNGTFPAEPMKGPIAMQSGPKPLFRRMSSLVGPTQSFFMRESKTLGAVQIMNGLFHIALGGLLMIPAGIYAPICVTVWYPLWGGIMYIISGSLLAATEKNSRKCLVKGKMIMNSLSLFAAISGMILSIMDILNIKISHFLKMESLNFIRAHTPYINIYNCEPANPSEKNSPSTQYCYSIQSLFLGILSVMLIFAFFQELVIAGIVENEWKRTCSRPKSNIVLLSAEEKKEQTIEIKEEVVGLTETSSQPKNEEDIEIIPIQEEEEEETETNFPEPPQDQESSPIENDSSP
The experiment in a line: Blocking of fluorescent anti-CD20 labeling of Daudi cells (flow cytometry). Format: binding. Conditions: Daudi cells pretreated prior to CD20 labeling. From the text:
FIG. 12 depicts the results of an experiment in which CD20 positive Daudi lymphoma cells were labeled with fluorescent tagged anti-human CD20 or isotype matched control in panels F and A, respectively, and analyzed by flow cytometry.
CD20 positive Daudi lymphoma cells were labeled with fluorescent tagged anti-human CD20 or isotype matched control in panel F and A, respectively, and analyzed by flow cytometry.
(In general: In flow cytometry, cells or beads pass a laser one at a time.)

Experiment [4] concerns A375 human melanoma cells. The experiment in a line: A375 human melanoma xenograft in athymic nude mice. The format is in vivo.
Protocol: In vivo experiments were performed at least 2 times. The number of mice required for those experiments was determined by power analysis. Mouse tumors were measured 2-3 times/week and mice were sacrificed when the tumor was 10% by weight. […] The end point of the mouse studies was median survival. Kaplan-Meier curves were generated and Mantle-Cox test was performed to determine significance of median survival between treatment groups. The in vitro results presented are representative of at least 5 repeated experiments. Statistical analyses of in vitro and in vivo percent change from baseline experiments were done using the Student's t-test.
as §1

In the case of rituximab, the “pH and temperature dependence of binding affinity to ABX” value in experiment [1] is recorded as “decreased with higher pH”. The median survival in experiment [2] came out at 12 days. Besides, the “blocking of CD20 binding of fluorescent anti-CD20” value in experiment [3] is reported as “specifically blocked”.

As to bevacizumab, the “pH and temperature dependence of binding affinity to ABX” value in experiment [1] is “highest binding affinity observed when the particles are formed at pH 5 and 58 °C”. Further, the “therapeutic effect on tumor volume” value in experiment [4] (12 mg/kg dose) is “not therapeutic”. This substance displayed a median survival in experiment [4] (BEV 12 mg/kg, ABX 30 mg/kg, BEV followed by ABX, or AB160) of 14 days.
